The values below come from publication PMC3084282.

In test [1] the target is α-crystallin (bovine lens) (bovine (endogenous in calf lens)) (UniProt P02470).
For test [2] the target is unchanged. This is another data set of the same source.

Chain of UniProt P02470 (P02470 whole entry, chain 1 of 2): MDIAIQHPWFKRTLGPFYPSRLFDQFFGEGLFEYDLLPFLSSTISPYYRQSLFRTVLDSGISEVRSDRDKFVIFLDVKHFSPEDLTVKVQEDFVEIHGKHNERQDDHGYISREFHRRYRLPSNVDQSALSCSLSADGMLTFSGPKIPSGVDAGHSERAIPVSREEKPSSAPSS
Chain of UniProt P02470 (P02510 whole entry, chain 2 of 2, further chain): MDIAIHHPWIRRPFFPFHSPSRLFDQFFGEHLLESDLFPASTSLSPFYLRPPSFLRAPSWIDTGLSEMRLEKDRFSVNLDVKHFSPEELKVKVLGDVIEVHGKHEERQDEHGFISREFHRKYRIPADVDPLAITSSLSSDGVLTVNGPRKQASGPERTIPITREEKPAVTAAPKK

Take αA-(66-80) peptide: the precipitation of soluble α-crystallin from 200 µg of CLE after incubation with increasing amounts of peptide (up to 50 µg), 16 h, 37°C; supernatant analysed by MALS in test [1] was > 50%. Besides, in test [2], the Bis-ANS fluorescence (hydrophobicity) of α-crystallin (100 µg) with 10 or 20 µg of peptide, 50 mM phosphate buffer pH 7.2, 60 min is 30%.
